Reference: publication PMC2830281

How the values were obtained:
Assay in all cases: latex bead solid phase immunoassay read by flow cytometry
[1] = target: mouse IgA (native, on latex beads) (mouse)
[2] = target: mouse IgG1 (native, on latex beads) (mouse)
[3] = target: mouse IgM (native, on latex beads) (mouse)
[4] = target: mouse IgG2b (native, on latex beads) (mouse)
[5] = target: mouse IgG2a (native, on latex beads) (mouse)
[6] = target: mouse IgG3 (native, on latex beads) (mouse)

Measured: fold lower mean fluorescence intensity than beads with catfish IgM

Chain of mouse IgM (native, on latex beads) (mouse) (P01872 whole entry, chain 1 of 3, other chains not shown): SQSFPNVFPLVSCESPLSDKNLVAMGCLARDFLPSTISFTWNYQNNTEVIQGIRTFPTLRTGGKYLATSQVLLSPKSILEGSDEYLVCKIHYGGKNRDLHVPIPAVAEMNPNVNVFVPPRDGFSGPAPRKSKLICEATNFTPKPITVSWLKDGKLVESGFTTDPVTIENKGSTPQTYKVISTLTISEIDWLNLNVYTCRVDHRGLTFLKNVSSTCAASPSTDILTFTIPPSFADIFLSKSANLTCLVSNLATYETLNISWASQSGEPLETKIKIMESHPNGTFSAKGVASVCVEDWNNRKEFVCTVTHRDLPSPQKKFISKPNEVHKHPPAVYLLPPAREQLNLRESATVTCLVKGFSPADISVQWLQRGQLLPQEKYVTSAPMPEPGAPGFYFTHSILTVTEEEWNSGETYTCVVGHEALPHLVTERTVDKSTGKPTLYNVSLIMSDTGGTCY
Chain of mouse IgM (native, on latex beads) (mouse) (P01592 22-159, chain 3 of 3, other chains not shown, further chain): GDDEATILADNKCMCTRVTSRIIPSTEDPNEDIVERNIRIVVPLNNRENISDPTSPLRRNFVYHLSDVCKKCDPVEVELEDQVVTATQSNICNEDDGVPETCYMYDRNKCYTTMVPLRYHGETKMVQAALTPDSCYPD
Chain of mouse IgG2a (native, on latex beads) (mouse) (P01863 whole entry, chain 1 of 2, other chains not shown): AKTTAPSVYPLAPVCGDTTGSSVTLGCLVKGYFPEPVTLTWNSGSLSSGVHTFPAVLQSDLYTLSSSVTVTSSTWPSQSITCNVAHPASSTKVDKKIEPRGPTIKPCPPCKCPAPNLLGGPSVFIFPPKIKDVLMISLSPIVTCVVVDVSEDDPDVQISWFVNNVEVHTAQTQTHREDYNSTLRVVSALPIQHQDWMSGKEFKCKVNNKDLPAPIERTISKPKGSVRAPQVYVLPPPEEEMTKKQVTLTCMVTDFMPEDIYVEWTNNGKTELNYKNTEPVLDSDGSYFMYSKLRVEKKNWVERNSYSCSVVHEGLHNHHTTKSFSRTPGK

recombinant IpFcRI (D1-D2-D3), channel catfish soluble FcμR (receptor)
5 fold: all assays above
